± gives the standard error. For some assays here: Fewer inactive variants are shown than the library holds.
B1: glmS ribozyme (parent)
chain: AUAAAAGCGCCAGAACUACAGAAAUGUAGUUGACGAGGAGGAGGUUUAUCGAAUUUUCGGCGGAUGCCUCCAAA

Key:
Conditions in all cases: with glucosamine-6-phosphate
[1] = variants of: B1; test: kcat; higher = faster cleavage; RNA array
In short: (§1)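 Barcoded glmS ribozyme variants on sequenced MiSeq chips were transcribed in situ by E. coli RNA polymerase and tracked through a hybridised Cy3 probe at 37 °C. Glucosamine-6-phosphate (40 μM to 10 mM) in HEPES/KCl/Mg(OAc)2 buffer was flowed in, and tiles were imaged over ~14 h. Signals were normalised to baseline and to non-cleaving reference variants; per-tile medians were fit to one- or two-exponential decays to give kobs. kcat and KM came from weighted Michaelis–Menten fits across concentrations.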

[2] = variants of: B1; test: self-cleavage kobs at 40 uM GlcN6P; higher = faster cleavage; RNA array
In short: as §1

[3] = variants of: B1; test: self-cleavage kobs at 160 uM GlcN6P; higher = faster cleavage; RNA array
In short: as §1

[4] = variants of: B1; test: self-cleavage kobs at 2500 uM GlcN6P; higher = faster cleavage; RNA array
In short: as §1

[5] = variants of: B1; test: self-cleavage kobs at 10000 uM GlcN6P; higher = faster cleavage; RNA array
In short: as §1

[6] = variants of: B1; test: KM; higher = weaker cofactor use; RNA array
In short: as §1

[7] = variants of: B1; test: self-cleavage kobs at 640 uM GlcN6P; higher = faster cleavage; RNA array
In short: as §1

Variant | kcat [1] | self-cleavage kobs at 40 uM GlcN6P [2] | self-cleavage kobs at 160 uM GlcN6P [3] | self-cleavage kobs at 2500 uM GlcN6P [4] | self-cleavage kobs at 10000 uM GlcN6P [5] | KM [6] | self-cleavage kobs at 640 uM GlcN6P [7]
AUAAAAGCGGCAGAACUACAGAAAUGUAGUUGACGAGGAGGAGGUUUACCGAAUUUUCGGCGGAUGCCUCCAAA [C10G U49C] | < 1e-05 s⁻¹ | < 1e-05 s⁻¹ | < 1e-05 s⁻¹ | < 1e-05 s⁻¹ | < 1e-05 s⁻¹ | – | –
AUAAAAGCGCCAGAACUACAGAAAUGUAGUUGACGAGGAGGAGGUUUAUCGAAUUUUCGGAGGAUGCCUUCAAA [C61A C70U] | 1.28e-05 ± 2.9e-06 s⁻¹ | – | – | – | – | – | –
AUAAAAGCGCCAGAACUACAGAAAUGUAGUUGACGAGGAGGAGGUUAAUCGAAUUUUCAGCGGAUGCCUCCAAA [U47A G59A] | 8.22e-05 ± 1.1e-05 s⁻¹ | < 1e-05 s⁻¹ | – | 3.14e-05 ± 1.2e-05 s⁻¹ | 6.07e-05 ± 1.8e-05 s⁻¹ | 3740 ± 1100 µM | –
AUAAAUGCGCCAGAACUACAGAAAUGUACUUGACGAGGAGGAGGUUUAUCGAAUUUUCGGCGGAUGCCUCCAAA [A6U G29C] | < 1e-05 s⁻¹ | < 1e-05 s⁻¹ | < 1e-05 s⁻¹ | – | – | – | < 1e-05 s⁻¹
AUAAAUGCGCCAGAACUACAGAAAUGUAGUUGACGAGGAGGAGGUUUAUCGAACUUUCGGCGGAUGCCUCCAAA [A6U U54C] | 0.000261 ± 4.2e-05 s⁻¹ | – | – | 0.000165 ± 3.3e-05 s⁻¹ | 0.000195 ± 4.6e-05 s⁻¹ | 2260 ± 670 µM | 5.25e-05 ± 1.2e-05 s⁻¹
AUAAAAGCGCCAGAACUACAGAAAUGUAGUUGACGAGGAGGAGGUUUAUAGAAUUUUCGGCGGAUGUCUCCAAA [C50A C67U] | 1.84e-05 ± 4e-06 s⁻¹ | – | – | – | – | – | –
AUAAAAGCGCCAGAACUACAGAAAUGUAGUGGACGAGGAGGAGGGUUAUCGAAUUUUCGGCGGAUGCCUCCAAA [U31G U45G] | 0.00239 ± 0.00077 s⁻¹ | – | – | 0.00155 ± 0.00034 s⁻¹ | 0.00164 ± 0.00042 s⁻¹ | – | 0.000405 ± 0.0001 s⁻¹
AUAAAAGCGCCAGAACUACAGAAAUGUAGUUGACGCGGAGGAGGUUUAUCGAAUUUUCGGCGGAGGCCUUCAAA [A36C U65G C70U] | 1.94e-05 ± 5.3e-06 s⁻¹ | – | – | – | – | – | –
AUAAAAGCGCCAGAACUACAGAAAUGUAGUUGACGAGGAGGAGGUUGAUCCAAUUUCCGGCGGAUGCUUCCAAA [U47G G51C U57C C68U] | 1.54e-05 ± 3.7e-06 s⁻¹ | < 1e-05 s⁻¹ | – | – | – | – | –
AUAAAAGCGCCAGAACUACAGAAAUGUAGUUGACGAGGAGGAGGUUGCUCGAAUUUUCGGCGGAUGCCUCCAAA [U47G A48C] | 0.000154 ± 1.4e-05 s⁻¹ | < 1e-05 s⁻¹ | – | 9.31e-05 ± 3e-05 s⁻¹ | 0.000124 ± 1.9e-05 s⁻¹ | 2250 ± 640 µM | –
AUAAAAGCGCCAGAACUACAGAAAUGUAGUUGACGAGGCGGAGGUUUAUCGAAUUUGCGGCGGAUGCCUCCAAA [A39C U57G] | < 1e-05 s⁻¹ | – | < 1e-05 s⁻¹ | – | – | – | –
AUAAAAGCGCCAGGACUACAGAAAUGUAGUUGACGAGGAGCAGGUUUAUCGAAUUUUCGGCGGAUGCCUCCAAA [A14G G41C] | 0.00141 ± 0.00048 s⁻¹ | 4.74e-05 ± 9.7e-06 s⁻¹ | 4.38e-05 ± 1.7e-05 s⁻¹ | 0.000737 ± 0.00013 s⁻¹ | 0.00105 ± 0.00013 s⁻¹ | – | 0.00022 ± 5.1e-05 s⁻¹

Source: the supplement of paper PMC7125110
